A word on the IC50: it is the concentration that gives 50% inhibition. For orientation: EC50 means the concentration that produces a half-maximal response. A higher EC50 goes with weaker potency. The term Kd denotes the constant that tells how readily two partners part at equilibrium. A higher Kd goes with lower affinity. As usually defined, the koff is the rate constant with which the complex falls apart. In general, kon refers to the rate constant with which the complex forms. A lower kon goes with slower complex formation.

Test [1] concerns the target T1, recombinant protein PD-L1-His (human, UniProt Q9NZQ7 19-238).
T1 construct: also called PD-L1-his fusion protein; human PDL1-his protein
Description: competitive ELISA, PDL1-his coated, competitor PD1-Fc 50 µg/mL.

Test [2] concerns the target T2, human PD-L1 expressed on Raji cells (human, UniProt Q9NZQ7 19-290).
T2 construct: whole, on cells; also called Raji-PDL1; PDL1 protein expressed on Raji cells
The test can be described thus: flow cytometry on Raji cells expressing human PD-L1, anti-His FITC. On the technique in general: In flow cytometry, cells or beads pass a laser one at a time.

The target of test [3] is T2, human PD-L1 expressed on Raji cells. Description: flow cytometry competition on Raji-PDL1 cells, competitor PD1-Fc.
In a further test the target is T3, BSA (UniProt P02769 25-607).
T3 construct: unrelated protein of the specificity ELISA
T3 sequence (P02769 25-607 limits assumed): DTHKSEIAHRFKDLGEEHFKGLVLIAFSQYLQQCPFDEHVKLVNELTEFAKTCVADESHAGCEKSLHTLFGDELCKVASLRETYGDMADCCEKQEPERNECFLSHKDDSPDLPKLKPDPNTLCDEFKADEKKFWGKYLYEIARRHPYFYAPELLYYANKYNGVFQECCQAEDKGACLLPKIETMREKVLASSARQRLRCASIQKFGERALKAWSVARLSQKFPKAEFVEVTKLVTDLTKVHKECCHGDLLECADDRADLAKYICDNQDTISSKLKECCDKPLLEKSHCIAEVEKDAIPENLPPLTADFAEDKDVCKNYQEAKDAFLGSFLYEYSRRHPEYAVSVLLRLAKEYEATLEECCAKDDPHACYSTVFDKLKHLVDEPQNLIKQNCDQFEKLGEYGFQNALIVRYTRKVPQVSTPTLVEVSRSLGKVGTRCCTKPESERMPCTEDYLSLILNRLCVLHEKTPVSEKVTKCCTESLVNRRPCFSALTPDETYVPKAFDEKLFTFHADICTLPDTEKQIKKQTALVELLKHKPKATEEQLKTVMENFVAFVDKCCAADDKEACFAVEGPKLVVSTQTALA
The test can be described thus: ELISA, 200 ng/well coated, anti-His HRP. In general terms: In an ELISA, binding on a coated surface is turned into a signal by an enzyme label.

For another test, the target named is T4, HAS (UniProt P02768 25-609).
T4 construct: unrelated protein of the specificity ELISA; label read as HSA
The test can be described thus: ELISA, 200 ng/well coated, anti-His HRP.

Test [4] concerns the target T5, human PDL1-Fc fusion protein (human).
T5 construct: also called human PDL1-Fc recombinant protein
The test can be described thus: ELISA, human PDL1-Fc coated 200 ng/well, anti-His HRP.

The target in test [5] is T5, human PDL1-Fc fusion protein. The test is described as above. This is another data set of the same source.
For test [6] the target is unchanged. Described as above. The source holds these as a separate data set.
Test [7] deals with T1, recombinant protein PD-L1-His. The test can be described thus: competitive ELISA, PDL1-his coated, competitor PD1-Fc 50 µg/mL. The source holds these as a separate data set.
In test [8] the target is T5, human PDL1-Fc fusion protein. The test can be described thus: BLI (ForteBIO Octet QKe), PDL1-Fc loaded, analyte 100 nM. On the technique in general: In BLI a coated tip is dipped into the sample, and binding shifts an interference pattern.
Test [9] has the same target. The test is described as above. This is another data set of the same source.
In test [10] the target is T2, human PD-L1 expressed on Raji cells. Description: flow cytometry competition on Raji-PDL1 cells, competitor PD1-Fc. The source holds these as a separate data set.
The target of test [11] is T5, human PDL1-Fc fusion protein. Description: BLI (ForteBIO Octet QKe), PDL1-Fc loaded, analyte 100 nM. This is another data set of the same source.
For test [12] the target is unchanged. Description: ELISA, human PDL1-Fc coated 200 ng/well, anti-His HRP. The source holds these as a separate data set.
Test [13] shares this target. The test is described as above. This is another data set of the same source.
Test [14] shares this target. The description is as above. The source holds these as a separate data set.

Residue numbers refer to the chain shown, from its start. “And” between values parts separate entries of the source, which are not always exact repeats. Equal values may be shown once. Read-outs that look alike come from different tables or passages of the source.

T1 sequence (Q9NZQ7 19-238 limits assumed): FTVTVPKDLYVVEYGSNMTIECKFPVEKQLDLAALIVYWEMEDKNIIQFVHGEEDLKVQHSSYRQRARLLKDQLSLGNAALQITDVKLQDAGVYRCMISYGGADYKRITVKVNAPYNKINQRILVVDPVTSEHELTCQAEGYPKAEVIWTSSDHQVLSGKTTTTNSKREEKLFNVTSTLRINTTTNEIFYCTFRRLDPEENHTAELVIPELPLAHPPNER
T5 sequence (chain, as listed by the source limits assumed): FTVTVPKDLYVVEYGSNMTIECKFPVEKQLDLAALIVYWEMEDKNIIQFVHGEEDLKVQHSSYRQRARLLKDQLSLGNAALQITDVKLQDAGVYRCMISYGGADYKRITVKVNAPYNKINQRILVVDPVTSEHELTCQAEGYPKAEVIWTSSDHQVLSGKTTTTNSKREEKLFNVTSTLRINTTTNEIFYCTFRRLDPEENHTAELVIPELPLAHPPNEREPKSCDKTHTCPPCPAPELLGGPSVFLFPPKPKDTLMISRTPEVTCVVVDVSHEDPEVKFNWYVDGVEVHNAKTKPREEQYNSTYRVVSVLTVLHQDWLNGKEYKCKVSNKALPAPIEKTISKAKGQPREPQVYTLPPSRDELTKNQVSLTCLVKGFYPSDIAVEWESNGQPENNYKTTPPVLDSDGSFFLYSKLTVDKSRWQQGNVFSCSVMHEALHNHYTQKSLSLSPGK
T2 sequence (Q9NZQ7 19-290): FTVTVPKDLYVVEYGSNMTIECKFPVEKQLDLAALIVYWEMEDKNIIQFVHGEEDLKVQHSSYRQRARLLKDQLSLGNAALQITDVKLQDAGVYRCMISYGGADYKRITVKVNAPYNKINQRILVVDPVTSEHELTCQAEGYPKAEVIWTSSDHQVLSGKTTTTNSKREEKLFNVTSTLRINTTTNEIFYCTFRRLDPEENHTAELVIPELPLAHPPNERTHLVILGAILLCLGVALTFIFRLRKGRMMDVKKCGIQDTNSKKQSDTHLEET

B1: PDL1-3 (VHH)
VHH: QVQLQESGGGLVQPGGSLRLSCAGSGSIFRITPVAWYRQAPEKQRELVAVITDNGSTDYGDFVKGRFTISRDNAKNTVYLQMNSLKPEDTAVYYCNSRARPVRWTWGQGTQVTVSS
notes: Alpaca nanobody expressed in E. coli, His-tagged
In the case of B1, the IC50 in test [1] turned out to be 1.31 µg/mL; in test [3], 0.0406 µg/mL. The EC50 in [2] stood at 0.073 µg/mL; in test [4] it was 0.0128 µg/mL. Further, the binding result with BSA and in the test with HAS was “no binding (tested: 0.2 µg)” throughout.

B2: PDL1-14 (VHH)
VHH: QVQLQESGGGLVQPGGSLRLSCAASGIISDINMVAWYRQAPGKQRELVAKIFRGGSTYYTDFVKGRFTISRENAKNTVYLQMNSLKPDDTAVYYCNARIQIRADRDYSDYWGQGTQVTVSS
notes: as for B1
In the case of B2, in test [5], the EC50 worked out at 0.123 µg/mL. Also, the binding result in the test with BSA and in the test with HAS was “no binding (tested: 0.2 µg)” each time.

B3: PDL1-1 (VHH)
VHH: QVQLQESGGGLVQPGGSLTLSCAASGFTVSNSAVSWARQAPGKGLEWVSLIDSNRNTVYAQSVRGRFTISRDNVKNTVYLQMNSLKPEDTAVYYCAKGIWGSTLTGQGTQVTVSS
notes: Alpaca nanobody expressed in E. coli, purified on HisTrap and detected with anti-His antibody; also called PD-L1-1 heavy chain single-domain antibody; P1
As for B3, the EC50 in [6] is 0.0421 µg/mL and 3.48 nM; in test [2] it was 0.0606 µg/mL; in test [4] it was 0.00825 µg/mL. Further, the IC50 in test [1] came out at 2.32 µg/mL; in test [7], 5.8 µg/mL; in test [3] it was 0.0626 µg/mL; in [10], 0.477 µg/mL. The Kd in test [8] was 3.39 nM; in [9], 2.96 nM. For the same molecule, the koff was found to be 0.00563 s⁻¹ in test [8] and 0.00532 s⁻¹ in test [9]. The kon came out at 1.66e+06 M⁻¹ s⁻¹ in [8] and 1.8e+06 M⁻¹ s⁻¹ in [9]. For the same molecule, the binding result with BSA and with HAS was “no binding (tested: 0.2 µg)” in each case.

B4: PDL1-1v4 (VHH)
VHH: B3 VHH with Q1E, T19R, V74S, K86R, P87A, T105W, Q110T
notes: Humanized PDL1-1, His-tagged
In turn, B4 gave a Kd in test [11] of 1320 nM. The same molecule returned an EC50 in test [12] of 4 µg/mL.

B5: PDL1-1v7 (VHH)
VHH: B3 VHH with Q1E, Q5L, T19R, V74S, K86R, T105W, Q110T
notes: Humanized PDL1-1, His-tagged
With B5, the Kd in [11] is 10.9 nM. Besides, the concentration giving a half-maximal response (EC50) in [12] amounted to 0.028 µg/mL.

B6: PDL1-1v1 (VHH)
VHH: B3 VHH with Q1E, Q5L, T19R, V74S, K86R, P87A, T105W, Q110T
notes: Humanized PDL1-1, His-tagged, from 293-F
Turning to B6, the Kd in [11] is 13.1 nM. Moreover, the EC50 worked out at 0.0251 µg/mL in test [12] and 0.0275 µg/mL in test [13].

B7: PDL1-1v9 (VHH)
VHH: B3 VHH with Q1E, Q5L, T19R, V74S, K86R, P87A, T105W
notes: Humanized PDL1-1, His-tagged
Molecule B7 had a Kd in test [11] of 12.1 nM. In [12], this molecule returned an EC50 of 0.026 µg/mL.

B8: PDL1-13 (VHH)
VHH: QVQLQESGGGLVQPGGSLRLSCAASGFTFSTSFVSWVRQAPGKGLEWVSRISPGGASTSYADSVKGRFTISRDNAENTLYLQMNSLKPEDTALYYCAREIYSGRFSGFDYWGQGTQVTVSS
notes: as for B1
In [5], B8 yielded an EC50 of 0.0661 µg/mL. The binding result with BSA and in the test with HAS was “no binding (tested: 0.2 µg)” in each case.

B9: Fusion 4 (other, murine)
chain 1: RVIPVSGPARCLSQSRNLLKTTDDMVKTAREKLKHYSCTAEDIDHEDITRDQTSTLKTCLPLELHKNESCLATRETSSTTRGSCLPPQKTSLMMTLCLGSIYEDLKMYQTEFQAINAALQNHNHQQIILDKGMLVAIDELMQSLNHNGETLRQKPPVGEADPYRVKMKLCILLHAFSTRVVTINRVMGYLSSAHHHHHH
chain 2: QVQLQESGGGLVQPGGSLTLSCAASGFTVSNSAVSWARQAPGKGLEWVSLIDSNRNTVYAQSVRGRFTISRDNVKNTVYLQMNSLKPEDTAVYYCAKGIWGSTLTGQGTQVTVSSGGGGSGGGGSGGGGSMWELEKDVYVVEVDWTPDAPGETVNLTCDTPEEDDITWTSDQRHGVIGSGKTLTITVKEFLDAGQYTCHKGGETLSHSHLLLHKKENGIWSTEILKNFKNKTFLKCEAPNYSGRFTCSWLVQRNMDLKFNIKSSSSSPDSRAVTCGMASLSAEKVTLDQRDYEKYSVSCQEDVTCPTAEETLPIELALEARQQNKYENYSTSFFIRDIIKPDPPKNLQMKPLKNSQVEVSWEYPDSWSTPHSYFSLKFFVRIQRKKEKMKETEEGCNQKGAFLVEKTSTEVQCKGGNVCVQAQDRYYNSSCSKWACVPCRVRS
notes: PDL1-1 nanobody fused with murine IL-12; two plasmids co-transfected 1:1; also called mP35-6his + P1-mP40
Regarding B9, the EC50 in test [14] was 0.75 µg/mL and 9.91 nM.

Source of the values: EP4703382A1 (Kanglitai Biomedical (Qingdao) Co., Ltd., dated 2026).
